PMC7919418 (Genes & Development, 2021)

Assay: SEC-MALS molecular weight / oligomeric state
Format: physicochemical

dual-TQT/V Panx peptides: Panx peptide residues 455–480 with both Ctp binding sites (TLYKNAATQTERRTATRDAGTQVRLE)
oligomeric state / stoichiometry: two Ctp homodimers with two dual-TQT/V Panx peptides
